Reference: US20180339041A1 (Kyowa Kirin, published 2018)

T1: C-terminally FLAG-tagged human Gas6 recombinant protein (hGas6-F) (human, UniProt Q14393 31-678, gamma-carboxylated glutamic acid residues in the Gla domain (producer cells co-express rat VKOR and human GGCX); positions not given)
T1 construct: also called human Gas6-F; human Gas6 protein
T1 sequence: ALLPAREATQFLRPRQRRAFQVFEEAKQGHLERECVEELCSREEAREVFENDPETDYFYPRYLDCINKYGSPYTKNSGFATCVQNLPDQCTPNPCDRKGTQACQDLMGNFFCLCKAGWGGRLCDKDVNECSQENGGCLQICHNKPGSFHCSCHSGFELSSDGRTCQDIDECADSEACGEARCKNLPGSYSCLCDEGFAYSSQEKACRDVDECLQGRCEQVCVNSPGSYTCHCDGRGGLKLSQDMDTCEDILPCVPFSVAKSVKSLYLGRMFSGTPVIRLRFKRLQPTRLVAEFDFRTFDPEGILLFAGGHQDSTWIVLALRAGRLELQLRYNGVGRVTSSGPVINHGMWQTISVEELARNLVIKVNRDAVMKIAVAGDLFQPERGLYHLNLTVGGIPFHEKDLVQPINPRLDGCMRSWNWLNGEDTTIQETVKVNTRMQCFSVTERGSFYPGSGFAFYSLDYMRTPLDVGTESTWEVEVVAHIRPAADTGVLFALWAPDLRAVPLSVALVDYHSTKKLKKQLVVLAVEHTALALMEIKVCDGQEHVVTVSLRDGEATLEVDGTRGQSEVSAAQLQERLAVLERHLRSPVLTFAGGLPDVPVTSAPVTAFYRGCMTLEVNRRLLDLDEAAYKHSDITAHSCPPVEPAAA


Target: T1, C-terminally FLAG-tagged human Gas6 …
Assay: SPR Biacore T100, captured antibody, Gas6 analyte, first test
Experimental: An anti-human IgG antibody was immobilized on a CM5 sensor chip (manufactured by GE Healthcare Japan Corp.) using Human Antibody Capture Kit (manufactured by GE Healthcare Japan Corp.) according to the attached manual. Each test antibody adjusted to 1 μg/mL was added for 10 seconds at a flow rate of 10 μL/min to flow cells. […] The measurement was performed by the […] method. The obtained sensorgram was analyzed using Bia Evaluation Software (manufactured by GE Healthcare Japan Corp.), and the kinetic constant of each antibody was calculated.

| Kd [nM] | koff [s⁻¹] | kon [M⁻¹ s⁻¹] | Binder |
| --- | --- | --- | --- |
| < 2.11 | 0.000155 | > 73600 | hzKM5320 LV5HV8 antibody (antibody, V domains shown, Humanized; variant human IgG4 constant region (EU S228P, L235E, R409K), human kappa; also called A-16) VH: QIQLVQSGPELKKPGASVKISCKASGYTFTNYGMNWVKQAPGQGLKWMGWINTETGEPTYSDDFKGRFVFSLDTSVTTAYLQISSLKAEDTATYFCAREDGYYGTLDYWGQGTTVTVSS VL: DIVMTQSPDSLAVSLGERVTINCKASQSVSNDVAWYQQKPGQSPKVLIYYASNRYTGVPDRFSGSGSGTDFTFTISSVQAEDVAVYFCQQDYSSPWTFGQGTKLEIK |
| < 3.22 | 0.000216 | > 67200 | hzKM5320 LV6HV0 antibody (antibody, V domains shown, Humanized; variant human IgG4 constant region (EU S228P, L235E, R409K), human kappa; also called A-09) VH: QVQLVQSGSELKKPGASVKVSCKASGYTFTNYGMNWVRQAPGQGLEWMGWINTETGEPTYSDDFKGRFVFSLDTSVSTAYLQISSLKAEDTAVYYCAREDGYYGTLDYWGQGTTVTVSS VL: DIVMTQSPDSLAVSAGERVTINCKASQSVSNDVAWYQQKPGQSPKVLIYYASNRYTGVPDRFSGSGSGTDFTFTISSVQAEDVAVYFCQQDYSSPWTFGQGTKLEIK |
| < 2.18 | 0.000158 | > 72500 | hzKM5320 LV6HV8 antibody (antibody, V domains shown, Humanized; variant human IgG4 constant region (EU S228P, L235E, R409K), human kappa; also called A-17) VH: QIQLVQSGPELKKPGASVKISCKASGYTFTNYGMNWVKQAPGQGLKWMGWINTETGEPTYSDDFKGRFVFSLDTSVTTAYLQISSLKAEDTATYFCAREDGYYGTLDYWGQGTTVTVSS VL: DIVMTQSPDSLAVSAGERVTINCKASQSVSNDVAWYQQKPGQSPKVLIYYASNRYTGVPDRFSGSGSGTDFTFTISSVQAEDVAVYFCQQDYSSPWTFGQGTKLEIK |
| < 2.35 | 0.000239 | > 102000 | hzKM5321 LV6HV1 antibody (antibody, V domains shown, Humanized; variant human IgG4 constant region (EU S228P, L235E, R409K), human kappa; also called B-22; LV6HV1) VH: QVHLVQSGSELKKPGASVKISCKASGYTFTNYGMNWVRQAPGQGLKWMGWINTNTGEPTYTEEFKGRFVFSLDTSVTTSYLQISTLKAEDTAVYFCARDEGWFVYWGQGTLVTVSS VL: ETTLTQSPSSLSVSTGDRVTITCITSTDIDDDMNWYQQKPGKPPKLLISEGNTLRPGVPSRFSSSGSGTDFTLTISSTQPEDFADYYCLQTDSVPLTFGQGTKVEIK |
| < 6.74 | 0.000672 | > 100000 | hzKM5321 LV0HV7 antibody (antibody, V domains shown, Humanized; variant human IgG4 constant region (EU S228P, L235E, R409K), human kappa; also called B-12; LV0HV7) VH: QIHLVQSGPELKKPGASVKISCKASGYTFTNYGMNWVKQAPGQGLKWMGWINTNTGEPTYTEEFKGRFVFSLDTSVTTAYLQISTLKAEDTATYFCARDEGWFVYWGQGTLITVSS VL: ETTLTQSPSSLSASVGDRVTITCITSTDIDDDMNWYQQKPGKAPKLLISEGNTLRPGVPSRFSGSGSGTDFTLTISSLQPEDFATYYCLQTDSVPLTFGQGTKVEIK |
| < 3.92 | 0.000492 | > 126000 | hzKM5321 LV1aHV0 antibody (antibody, V domains shown, Humanized; variant human IgG4 constant region (EU S228P, L235E, R409K), human kappa; also called B-03; LV1aHV0) VH: QVHLVQSGSELKKPGASVKISCKASGYTFTNYGMNWVRQAPGQGLEWMGWINTNTGEPTYTEEFKGRFVFSLDTSVTTSYLQISTLKAEDTAVYFCARDEGWFVYWGQGTLVTVSS VL: ETTLTQSPSSLSASVGDRVTITCITSTDIDDDMNWYQQKPGKPPKLLISEGNTLRPGVPSRFSGSGSGTDFTLTISSLQPEDFATYYCLQTDSVPLTFGQGTKVEIK |
| < 6.83 | 0.000684 | > 100000 | hzKM5321 LV1aHV7 antibody (antibody, V domains shown, Humanized; variant human IgG4 constant region (EU S228P, L235E, R409K), human kappa; also called B-13; LV1aHV7) VH: QIHLVQSGPELKKPGASVKISCKASGYTFTNYGMNWVKQAPGQGLKWMGWINTNTGEPTYTEEFKGRFVFSLDTSVTTAYLQISTLKAEDTATYFCARDEGWFVYWGQGTLITVSS VL: ETTLTQSPSSLSASVGDRVTITCITSTDIDDDMNWYQQKPGKPPKLLISEGNTLRPGVPSRFSGSGSGTDFTLTISSLQPEDFATYYCLQTDSVPLTFGQGTKVEIK |
| < 4.26 | 0.000543 | > 127000 | hzKM5321 LV1bHV0 antibody (antibody, V domains shown, Humanized; variant human IgG4 constant region (EU S228P, L235E, R409K), human kappa; also called B-04; LV1bHV0) VH: QVHLVQSGSELKKPGASVKISCKASGYTFTNYGMNWVRQAPGQGLEWMGWINTNTGEPTYTEEFKGRFVFSLDTSVTTSYLQISTLKAEDTAVYFCARDEGWFVYWGQGTLVTVSS VL: ETTLTQSPSSLSASVGDRVTITCITSTDIDDDMNWYQQKPGKAPKLLISEGNTLRPGVPSRFSGSGSGTDFTLTISSLQPEDFADYYCLQTDSVPLTFGQGTKVEIK |
